Entries after “also recorded” stand apart in the source; their conditions may differ. Like-named read-outs stand apart in the source and are kept apart here. Where no end group is shown, it is not given here.
How the values were obtained:
[1] = tested on: Insulin-degrading enzyme (IDE); settings: cited from earlier work
Description: Table 1 Comparison of enzymatic characters of pitrilysin and IDE towards different substrates. | column: kcat (min^-1); KM (μM); kcat/KM (min^-1μM^-1)

pitrilysin [2] = target: T1, pitrilysin (Homo sapiens, UniProt Q5JRX3); settings: ref [23], cited from earlier work
T1 construct: made in house; host or cells: Sf9 cells
T1 sequence (Q5JRX3 29-1037): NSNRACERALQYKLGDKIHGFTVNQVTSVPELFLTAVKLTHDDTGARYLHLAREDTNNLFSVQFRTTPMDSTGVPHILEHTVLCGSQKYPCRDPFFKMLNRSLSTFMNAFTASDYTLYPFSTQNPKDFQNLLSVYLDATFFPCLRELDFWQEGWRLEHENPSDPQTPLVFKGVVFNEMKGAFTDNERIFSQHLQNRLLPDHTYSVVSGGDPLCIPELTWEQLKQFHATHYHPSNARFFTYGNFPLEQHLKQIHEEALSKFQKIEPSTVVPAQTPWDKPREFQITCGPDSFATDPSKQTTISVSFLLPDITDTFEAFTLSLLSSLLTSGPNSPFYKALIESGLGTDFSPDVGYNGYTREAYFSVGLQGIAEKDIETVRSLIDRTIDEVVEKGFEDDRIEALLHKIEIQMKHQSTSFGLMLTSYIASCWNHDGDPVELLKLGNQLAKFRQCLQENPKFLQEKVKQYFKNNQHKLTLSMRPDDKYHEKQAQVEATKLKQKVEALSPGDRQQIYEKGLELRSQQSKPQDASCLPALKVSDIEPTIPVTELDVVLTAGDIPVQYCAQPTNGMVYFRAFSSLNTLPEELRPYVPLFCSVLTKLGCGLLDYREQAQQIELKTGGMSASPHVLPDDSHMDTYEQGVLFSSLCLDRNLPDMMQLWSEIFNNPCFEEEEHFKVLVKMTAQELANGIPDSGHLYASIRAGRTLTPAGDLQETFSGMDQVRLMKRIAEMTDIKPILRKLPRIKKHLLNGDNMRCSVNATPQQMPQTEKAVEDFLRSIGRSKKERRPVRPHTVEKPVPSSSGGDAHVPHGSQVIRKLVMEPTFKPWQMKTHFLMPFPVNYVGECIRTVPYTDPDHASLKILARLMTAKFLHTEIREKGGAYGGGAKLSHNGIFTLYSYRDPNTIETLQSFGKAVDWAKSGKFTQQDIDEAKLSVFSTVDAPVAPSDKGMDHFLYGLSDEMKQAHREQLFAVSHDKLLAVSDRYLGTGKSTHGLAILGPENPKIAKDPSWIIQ
Description: (§1) Table 1 Comparison of enzymatic characters of pitrilysin and IDE towards different substrates. | column: kcat (min^-1); KM (μM); kcat/KM (min^-1μM^-1) || Having established IAPP as a substrate of pitrilysin, the kinetic properties of the reaction were determined. The rate of hIAPP hydrolysis was determined by measuring the disappearance of the substrate by HPLC, while k cat was determined based on the linear initial rate of hIAPP hydrolysis at a saturating hIAPP concentration (20 μM) using a molecular mass of 117 kDa for pitrilysin. The KM for hIAPP was determined by using it as an alternate substrate inhibitor of the hydrolysis of the fluorogenic peptide Abz-GGYRRGQ-EDDnp. The kcat and KM values of pitrilysin with hIAPP are 13.5 ± 0.1 m ...

pitrilysin [3] = assay: pitrilysin (400 nM) added to hIAPP oligomers generated with rat cardiac myocytes or from HIP rat cardiac myocytes; settings: human, 37°C, up to 1hr
recombinant pitrilysin = assay: 40 nM pitrilysin in 50 mM Tris/HCl buffer (pH 7.4) containing 200 mM NaCl; settings: human, 37°C, up to 60'
pitrilysin [4] = assay: 40 nM pitrilysin added to hIAPP preincubated at 37°C to induce oligomer formation; settings: human, up to 1hr
[5] = tested on: Insulin-degrading enzyme (IDE); assay: Cleavage of peptide substrates by insulin-degrading enzyme (IDE), determined as for pitrilysin; format: biochemical; settings: mean ± SEM
Description: as §1, with “Having” for “Table 1 Comparison of enzymatic characters of pitrilysin and IDE towards different substrates. | column: kcat (min^-1); KM (μM); kcat/KM (min^-1μM^-1) || Having”, “min^-1 and 0.38 ± 0.01 μM, respectively (Table 1).” for “m ...”
We therefore compared the enzymatic properties of these two enzymes in terms of hIAPP degradation. The kcat and KM values for IDE with hIAPP were determined as above yielding values of 294 ± 0.4 min^-1 and 3.11 ± 0.20 μM, respectively. […] (Table 1). Thus relative to IDE, pitrilysin is a more specific IAPP degrading enzyme.

pitrilysin [6] = target: T1, pitrilysin; assay: Cleavage of peptide substrates by recombinant pitrilysin (HPLC substrate disappearance; KM as alternate substrate inhibitor of a fluorogenic peptide); format: biochemical; settings: for Degradation of monomeric IAPP by pitrilysin: monomeric peptide 20 μM, HPLC
Description: Pitrilysin was produced in Sf9 cells (ATCC, Manassas, VA, USA) and purified as described.. The purity of recombinant pitrilysin is greater than 97% as judged from Coomassie blue stained SDS-PAGE gels using NIH ImageJ software (S1 Fig).
Monomeric hIAPP (20 μM) was incubated with 40 nM pitrilysin in 50 mM Tris/HCl buffer (pH 7.4) containing 200 mM NaCl at 37°C for various times and analyzed by reverse phase HPLC [22, 23]. hIAPP and its cleavage products were collected manually and identified by mass spectrometry.
as §1, with “Having” for “Table 1 Comparison of enzymatic characters of pitrilysin and IDE towards different substrates. | column: kcat (min^-1); KM (μM); kcat/KM (min^-1μM^-1) || Having”, “min^-1 and 0.38 ± 0.01 μM, respectively (Table 1).” for “m ...”

pitrilysin [7] = target: T1, pitrilysin; assay: In vitro cleavage of oligomeric hIAPP by pitrilysin (SDS-PAGE, Western blot); format: biochemical; settings: hIAPP oligomers (12, 28, 36, 40 kDa and large oligomers), 40 or 400 nM pitrilysin, 37°C, 1 hr
Description: hIAPP was incubated at 37°C for 1 hr. with gentle shaking to induce hIAPP oligomerization. To produce low molecular weight oligomers, hIAPP oligomerization was initiated in saline solution at 37°C using 50 μM recombinant hIAPP and then incubated with myocytes for 2 hours at room temperature. Similarly cardiac myocytes from hIAPP expressing rats (HIP rats) contain amylin oligomers and thus both were used. Pitrilysin was added to oligomers and incubated for 1 hour at 37°C. The reaction was then subjected to SDS-PAGE and Western blotting with A11 antisera for large oligomer or with mouse anti-hIAPP for detection of monomers and small oligomers. Adult cardiac myocytes were isolated from wild-type Sprague-Dawley rats and from HIP rats as described.
Oligomers of hIAPP were generated from hIAPP incubated with rat cardiac myocytes and then incubated with pitrilysin (400 nM) at 37°C for 1 hr. Reactions were analyzed by Western blot analysis using mouse monoclonal anti-human amylin antibody E-5. b. […] Reactions were analyzed by Western blots using rabbit anti-IAPP that recognizes monomeric IAPP or rabbit anti-oligomer antibody A11. rIAPP (20 μM) was treated at the same condition as a negative control.

[8] = 20 μM hIAPP, 40 nM pitrilysin, 37°C, HPLC peaks identified by mass spectrometry
[9] = 40 nM pitrilysin, 50 mM Tris/HCl pH 7.4, 200 mM NaCl, 37°C

Insulin
Km ([1]; ref [44]): 0.13 ± 0.02 µM
kcat ([1]; ref [44]): 0.00933 ± 0.00017 s⁻¹
kcat/KM ([1]; ref [44]): 4.3 min^-1μM^-1
Km (pitrilysin [2]): 54.5 ± 5.5 µM
kcat (pitrilysin [2]): 0.0033 ± 0 s⁻¹
kcat/KM (pitrilysin [2]): 0.0037 min^-1μM^-1

KCNTATCATQRLANFLVHSSNNFGAILSSTNVGSNTY-NH2
not cleaved (pitrilysin [3]): inability of pitrilysin to reduce the amount of hIAPP oligomers of 12 kDa, 28 kDa, 36 kDa, or 40 kDa (1 hr)
cleaved bond (recombinant pitrilysin): Phe15-Leu16, first_seen; also recorded: Gly24-Ala25, major; also recorded: Ala25-Ile26, major; also recorded: Arg11-Leu12, minor; also recorded: Leu12-Ala13, minor; also recorded: Ala13-Asn14, minor; also recorded: Asn14-Phe15, minor
not cleaved (pitrilysin [4]): not able to degrade large hIAPP oligomers (1hr)

amyloid β peptide 1–40 [Aβ 40]
Km ([1]; ref [43]): 0.87 ± 0.1 µM
kcat ([1]; ref [43]): 3.68 ± 0.183 s⁻¹
kcat/KM ([1]; ref [43]): 250 min^-1μM^-1
kcat/KM (pitrilysin [2]; listed as Aβ1–40): 1.94 min^-1μM^-1
Km (pitrilysin [2]): 1.7 ± 0.1 µM
kcat (pitrilysin [2]): 0.055 ± 0.0017 s⁻¹

islet amyloid polypeptide (KCNTATCATQRLANFLVHSSNNFGAILSSTNVGSNTY; not fully specified (C-terminus); cysteine pairing not given here) [hIAPP, Human islet amyloid polypeptide (IAPP, amylin), from Anaspec; substrate of pitrilysin and IDE]
kcat ([5]; determined as for pitrilysin (HPLC, saturating hIAPP)): 4.9 ± 0.0067 s⁻¹
Km ([5]; determined as for pitrilysin (alternate substrate inhibitor)): 3.11 ± 0.2 µM
Initial cleavage sites on hIAPP by pitrilysin (pitrilysin [6]; [8]): Phe^15-Leu^16, Gly^24-Ala^25 and Ala^25-Ile^26
Secondary (subsequent) cleavage sites on hIAPP by pitrilysin (pitrilysin [6]; [8]): Arg^11-Leu^12, Leu^12-Ala^13, Ala^13-Asn^14 and Asn^14-Phe^15
Degradation of monomeric IAPP by pitrilysin (pitrilysin [6]; [9]): hIAPP degradation is indeed catalyzed by pitrilysin
Km (pitrilysin [6]; pitrilysin, hIAPP as alternate substrate inhibitor of hydrolysis of fluorogenic peptide Abz-GGYRRGQ-EDDnp, mean ± SEM): 0.38 ± 0.01 µM
kcat (pitrilysin [6]; pitrilysin, linear initial rate of hIAPP hydrolysis at saturating 20 μM, substrate disappearance by HPLC, 50 mM Tris/HCl pH 7.4, 200 mM NaCl, 37°C, molecular mass 117 kDa, mean ± SEM): 0.225 ± 0.0017 s⁻¹
Degradation of oligomeric hIAPP by pitrilysin (pitrilysin [7]): not able to degrade; also recorded: does not degrade

rIAPP: rodent (rat) islet amyloid polypeptide, does not form oligomers
Degradation of monomeric IAPP by pitrilysin (pitrilysin [6]; [9]): degrades monomeric rat IAPP

— paper PMC4507941 (PLoS ONE, 2015)
